Usually Kd stands for the concentration at which binding is half-saturated.

Here are results for 7 molecules from patent US20230348616A1 (MIE UNIVERSITY, published 2023).

Numbering of substitutions follows the chain as printed.

First the molecules themselves.
B1: NYA-2027 (scFv)
scFv: GEVQLVESGGGVVQPGRSLTPSCSASGFSIRSYDIHWVRQAPGKGLEWVATISYDGSQKYFADSVKGRFTIFRDESENMVYLQMSGLRVEDTAVYHCARGSSGHYEAFDIWGQGTMVTVSSGGGGSGGGGSGGGGSQSVLTQPPSVSAAPGQKVTISCSGSSSNIGNNYVSWYQQLPGTAPKLLIYDNNKRPSGIPDRFSGSKSGTSATLGITGLQTGDEADYYCGSWDSSLSAPWVFGGGTKVTVLGAAAGAGGDYKDDDDKGAAAHHHHHH
B2: NYA-2143 (scFv)
scFv: B1 scFv with Q40L, N168W, Q175R, S227T
B3: NYA-2035 (scFv)
scFv: B1 scFv with Q40L, N168W, Y169K, S227T
B4: NYA-2060 (scFv)
scFv: GEVQLVESGGGLVQPGGSLRLSCAASGFSIRSYDIHWVRQAPGKGLEWVATISYDGSQKYYADSVKGRFTISRDESKNTLYLQMNSLRAEDTAVYHCARGSSGHYEAFDIWGQGTLVTVSSGGGGSGGGGSGGGGSQSVLTQPPSVSAAPGQKVTISCSGSSSNIGNWYVSWYQQLPGTAPKLLIYDNNKRPSGIPDRFSGSKSGTSATLGITGLQTGDEADYYCGTWDSSLSAPWVFGGGTKVTVLGAAAGAGGDYKDDDDKGAAAHHHHHH
notes: also called NYA-2060 tag adduct
B5: NYA-2045 (scFv)
scFv: GEVQLVESGGGLVQPGGSLRLSCAASGFSIRSYDIHWVRLAPGKGLEWVATISYDGSQKYYADSVKGRFTISRDESKNTLYLQMNSLRAEDTAVYHCARGSSGHYEAFDIWGQGTLVTVSSGGGGSGGGGSGGGGSQSVLTQPPSASGTPGQRVTISCSGSSSNIGNWYVSWYQQLPGTAPKLLIYDNNKRPSGVPDRFSGSKSGTSASLAISGLQSEDEADYYCGTWDSSLSAPWVFGGGTKLTVLGAAAGAGGDYKDDDDKGAAAHHHHHH
notes: also called NYA-2045 tag adduct
B6: NYA-2044 (scFv)
scFv: B4 scFv with Q40L
notes: also called NYA-2044 tag adduct
B7: NYA-2047 (scFv)
scFv: B4 scFv with E2Q, L12V, G17R, I35M, E75N, N85S

For the first test, the target named is T1, gp100 (human).
T1 construct: cell surface;cell surface complex; also called HLA-A2 / gp100 peptide complex on T2 cells
Kind of test: flow cytometry on peptide-pulsed T2 cells, scFv 100 nM. (In general: In flow cytometry, cells or beads pass a laser one at a time.)
Protocol: (§1) The resultant was washed two times in the AIM-V medium containing 20% FBS, the concentration thereof was adjusted to an adequate level with PBS containing 5% FBS, the LIVE/DEAD Fixable Dead Cell Stain Kit (Thermo Fisher Scientific) was added thereto, and the resultant was allowed to stand at 4° C. for 30 minutes. The cells were washed 2 times in PBS containing 5% FBS, the washed cells were divided into two groups, the cells in PBS containing 5% FBS were seeded on a 96-well U-bottom microplate at 10⁵ cells/well, and the plate was subjected to centrifugation, followed by removal of the supernatant. Anti-HLA/NY-ESO scFv diluted to 100 nM with PBS containing 5% FBS was added at 25 μl/well to one of the divided cells, and the resultant was allowed to stand at 4° C. for 30 minutes. The cells were washed 2 times in PBS containing 5% FBS, Penta-His Alexa Fluor488 (QIAGEN) diluted in PBS containing 5% FBS was added at 25 μl/well, and the resultant was allowed to stand at 4° C. for 30 minutes. The cells were washed 2 times in PBS containing 5% FBS, Anti-mouse-IgG Alexa Fluor488 (Thermo Fisher Scientific) diluted in PBS containing 5% FBS was added at 25 μl/well, and the resultant was allowed to stand at 4° C. for 30 minutes. The cells were washed 2 times in PBS containing 5% FBS, immobilized with Mildform 10 N (FUJIFILM Wako Pure Chemical Corporation) overnight, and resuspended in PBS containing 5% FBS. […] The cells were washed 2 times in PBS containing 5% FBS, immobilized with Mildform 10 N (FUJIFILM Wako Pure Chemical Corporation) overnight, and resuspended in PBS containing 5% FBS. The cell suspensions were subjected to detection using a flow cytometer (CantoII, Becton Dickinson). […] The standardized gMFI indicating the binding affinity of each scFv standardized with the amount of the HLA/peptide complex on the T2 cells was determined in accordance with the following equation.
Turning to B1, the “standardized gMFI” value stood at 0.41.

Regarding B2, the “standardized gMFI” value was 0.38.

For B3, the “standardized gMFI” value stood at 0.38.

B4: the “standardized gMFI” value came to 0.41.

As for B5, the “standardized gMFI” value worked out at 0.39.

In the case of B6, the “standardized gMFI” value was 0.39.

Regarding B7, the “standardized gMFI” value came to 0.39.

The target of another test is T2, HLA-A2/NY-ESO peptide complex presented on cells (human).
T2 construct: whole, on cells; also called HLA/NY-ESO; T2 cells supplemented with the NY-ESO peptide
The description is as above.
Protocol: as §1
With B1, the “standardized gMFI” value came out at 5.75.

B2: the “standardized gMFI” value is 13.1.

Take B3: the “standardized gMFI” value is 9.94.

On to B4, for which the “standardized gMFI” value came out at 8.78.

For the molecule B5, the “standardized gMFI” value worked out at 9.03.

As for B6, the “standardized gMFI” value worked out at 12.9.

Consider B7, for which the “standardized gMFI” value was 7.99.

A further test concerns the target T3, HLA-A2 / homologous peptide IL20RB complex on T2 cells (human).
T3 construct: whole, on cells; also called T2 cells supplemented with homologous peptide IL20RB
Kind of test: flow cytometry, peptide-pulsed T2 cells.
Turning to B1, the binding result is “no binding (tested: 100 nM)”.

As for B2, the binding result is given as “no binding (tested: 100 nM)”.

B3: the binding result was “no binding (tested: 100 nM)”.

For B4, the binding result is on record as “no binding (tested: 100 nM)”.

B5: the binding result is “no binding (tested: 100 nM)”.

Take B6: the binding result was “no binding (tested: 100 nM)”.

For B7, the binding result is given as “no binding (tested: 100 nM)”.

The target in the next test is T4, HLA-A2 / homologous peptide CD163 complex on T2 cells (human).
T4 construct: whole, on cells; also called T2 cells supplemented with homologous peptide CD163
Kind of test: flow cytometry, peptide-pulsed T2 cells.
For B1, the binding result is “no binding (tested: 100 nM)”.

Turning to B2, the binding result is “no binding (tested: 100 nM)”.

Regarding B3, the binding result was “no binding (tested: 100 nM)”.

Take B4: the binding result was “no binding (tested: 100 nM)”.

In the case of B5, the binding result was “no binding (tested: 100 nM)”.

As to B6, the binding result is given as “no binding (tested: 100 nM)”.

Take B7: the binding result is reported as “no binding (tested: 100 nM)”.

The target of a further test is T5, HLA-A2 / homologous peptide P2RY8 complex on T2 cells (human).
T5 construct: whole, on cells; also called T2 cells supplemented with homologous peptide P2RY8
As to the kind of experiment: flow cytometry, peptide-pulsed T2 cells.
On to B1, for which the binding result is reported as “no binding (tested: 100 nM)”.

For B2, the binding result is “no binding (tested: 100 nM)”.

On to B3, for which the binding result is recorded as “no binding (tested: 100 nM)”.

Take B4: the binding result is listed as “no binding (tested: 100 nM)”.

On to B5, for which the binding result is listed as “no binding (tested: 100 nM)”.

Turning to B6, the binding result is given as “no binding (tested: 100 nM)”.

For B7, the binding result was “no binding (tested: 100 nM)”.

A further test concerns the target T6, HLA-A2 / homologous peptide DOLPP1 complex on T2 cells (human).
T6 construct: whole, on cells; also called T2 cells supplemented with homologous peptide DOLPP1
Kind of test: flow cytometry, peptide-pulsed T2 cells.
Consider B1, for which the binding result is “no binding (tested: 100 nM)”.

Take B2: the binding result is recorded as “no binding (tested: 100 nM)”.

In the case of B3, the binding result is on record as “no binding (tested: 100 nM)”.

Take B4: the binding result is on record as “no binding (tested: 100 nM)”.

B5: the binding result was “no binding (tested: 100 nM)”.

For the molecule B6, the binding result was “no binding (tested: 100 nM)”.

Take B7: the binding result is on record as “no binding (tested: 100 nM)”.

The target of a further test is T7, HLA-A2 / homologous peptide PRKD2 complex on T2 cells (human).
T7 construct: whole, on cells; also called T2 cells supplemented with homologous peptide PRKD2
As to the kind of experiment: flow cytometry, peptide-pulsed T2 cells.
In the case of B1, the binding result is “no binding (tested: 100 nM)”.

As to B2, the binding result was “no binding (tested: 100 nM)”.

Regarding B3, the binding result was “no binding (tested: 100 nM)”.

In the case of B4, the binding result is “no binding (tested: 100 nM)”.

As to B5, the binding result is “no binding (tested: 100 nM)”.

Turning to B6, the binding result is recorded as “no binding (tested: 100 nM)”.

In the case of B7, the binding result is on record as “no binding (tested: 100 nM)”.

The target in the next test is T8, HLA-A*0201/β2-microglobulin/NY-ESO peptide complex (human, biotinylated with E. coli biotin ligase at the added recognition sequence (biotinylated form used in the ELISA)).
T8 construct: also called HLA/NY-ESO; HLA-A2/NY-ESO
Kind of test: SPR (Biacore T200), scFv captured by anti-His antibody, HLA/NY-ESO as analyte, single cycle kinetics. For orientation: SPR reads the build-up and loss of mass on a sensor chip optically.
Protocol: With the use of Biacore T200, anti-HLA/NY-ESO scFv was captured as a ligand by the immobilized anti-His antibody, and the antigen was assayed as an analyte. As the antigen, HLA/NY-ESO prepared in 1)-1 was used. The anti-His antibody (His Capture kit, GE Healthcare) was immobilized on Sensor Chip CM5 (GE Healthcare) in accordance with the instructions of the kit. The anti-HLA/NY-ESO scFv constructs diluted to 0.5 μg/ml in HBS-EP+ (GE Healthcare) to be evaluated were brought into contact therewith at 10 μl/min for 60 seconds for immobilization. Thereafter, the samples were added to the HLA/NY-ESO analytes diluted to various levels with HBS-EP+ at a flow rate of 30 μl/min for 120 seconds and dissociation was assayed for 600 seconds.
Regarding B1, the Kd amounted to 11.2 nM.

For the molecule B2, the Kd is 0.9 nM.

Take B3: binding was characterised by a dissociation constant (Kd) of 3.2 nM.

B4 gave an equilibrium dissociation constant (Kd) of 1.1 nM.

Take B5: binding was characterised by a dissociation constant (Kd) of 0.8 nM.

For B6, binding was put at a Kd of 0.8 nM.

Consider B7, for which binding was put at a Kd of 5.3 nM.

A further test addresses T3, HLA-A2 / homologous peptide IL20RB …. As to the kind of experiment: flow cytometry on peptide-pulsed T2 cells, scFv 100 nM.
Protocol: (§2) The cells were washed 2 times in PBS containing 5% FBS, immobilized with Mildform 10 N (FUJIFILM Wako Pure Chemical Corporation) overnight, and resuspended in PBS containing 5% FBS. The cell suspensions were subjected to detection using a flow cytometer (CantoII, Becton Dickinson). […] The standardized gMFI indicating the binding affinity of each scFv standardized with the amount of the HLA/peptide complex on the T2 cells was determined in accordance with the following equation.
(§3) The 9-mer peptide shown in FIG. 2A was selected as a homologous peptide for evaluation of binding specificity of anti-HLA/NY-ESO scFv. […] The standardized gMFI indicating the binding affinity of each scFv standardized with the amount of the HLA/peptide complex on the T2 cells was determined in accordance with the following equation.
Turning to B1, the “standardized gMFI” value came out at 0.42.

As to B2, the “standardized gMFI” value amounted to 0.42.

With B3, the “standardized gMFI” value amounted to 0.41.

In the case of B4, the “standardized gMFI” value was determined as 0.45.

Regarding B5, the “standardized gMFI” value stood at 0.47.

Consider B6, for which the “standardized gMFI” value amounted to 0.43.

For the molecule B7, the “standardized gMFI” value was 0.43.

A further test addresses T4, HLA-A2 / homologous peptide CD163 …. The test is described as above.
Protocol: as §2, §3
For B1, the “standardized gMFI” value was determined as 0.51.

Consider B2, for which the “standardized gMFI” value turned out to be 0.46.

In the case of B3, the “standardized gMFI” value stood at 0.48.

On to B4, for which the “standardized gMFI” value came out at 0.47.

On to B5, for which the “standardized gMFI” value amounted to 0.48.

B6: the “standardized gMFI” value stood at 0.47.

Take B7: the “standardized gMFI” value worked out at 0.47.

The target in another test is T1, gp100. The description is as above. This is another data set of the same source.
Protocol: as §2, §3
B1: the “standardized gMFI” value came out at 0.31.

Turning to B2, the “standardized gMFI” value is 0.31.

Consider B3, for which the “standardized gMFI” value came out at 0.29.

As to B4, the “standardized gMFI” value was 0.32.

As for B5, the “standardized gMFI” value was found to be 0.3.

In the case of B6, the “standardized gMFI” value was 0.32.

As for B7, the “standardized gMFI” value is 0.3.

The target of another test is T5, HLA-A2 / homologous peptide P2RY8 …. The test is described as above.
Protocol: as §2, §3
As for B1, the “standardized gMFI” value is 0.7.

Take B2: the “standardized gMFI” value is 0.69.

Turning to B3, the “standardized gMFI” value was 0.69.

As for B4, the “standardized gMFI” value was determined as 0.62.

For the molecule B5, the “standardized gMFI” value is 0.58.

As to B6, the “standardized gMFI” value came to 0.72.

Take B7: the “standardized gMFI” value was 0.72.

The next test concerns the target T6, HLA-A2 / homologous peptide DOLPP1 …. The test is described as above.
Protocol: as §2, §3
Take B1: the “standardized gMFI” value came out at 0.39.

As for B2, the “standardized gMFI” value was 0.38.

Turning to B3, the “standardized gMFI” value came out at 0.38.

As to B4, the “standardized gMFI” value was 0.42.

B5: the “standardized gMFI” value is 0.43.

For the molecule B6, the “standardized gMFI” value was found to be 0.38.

Consider B7, for which the “standardized gMFI” value was 0.4.

A further test has as its target T7, HLA-A2 / homologous peptide PRKD2 …. The description is as above.
Protocol: as §2, §3
Turning to B1, the “standardized gMFI” value turned out to be 0.32.

In the case of B2, the “standardized gMFI” value turned out to be 0.32.

As for B3, the “standardized gMFI” value was 0.33.

With B4, the “standardized gMFI” value is 0.33.

In the case of B5, the “standardized gMFI” value stood at 0.34.

Regarding B6, the “standardized gMFI” value is 0.33.

For B7, the “standardized gMFI” value turned out to be 0.35.

Another test addresses T2, HLA-A2/NY-ESO peptide complex presented …. The description is as above. The source holds these as a separate data set.
Protocol: as §2, §3
Consider B1, for which the “standardized gMFI” value worked out at 7.25.

Turning to B2, the “standardized gMFI” value worked out at 13.5.

For B3, the “standardized gMFI” value was 11.1.

B4: the “standardized gMFI” value was 11.2.

Consider B5, for which the “standardized gMFI” value turned out to be 13.8.

With B6, the “standardized gMFI” value is 14.3.

Regarding B7, the “standardized gMFI” value was 10.2.
